± gives the standard error. For some assays here: Variants at the floor of the assay were thinned out.

B1: glmS ribozyme (parent)
chain: AUAAAAGCGCCAGAACUACAGAAAUGUAGUUGACGAGGAGGAGGUUUAUCGAAUUUUCGGCGGAUGCCUCCAAA

What all share (conditions): with glucosamine-6-phosphate
Series [1] covers variants of B1. As to the kind of experiment: kcat; higher = faster cleavage; RNA array. The procedure, abridged:
(§1)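 In situ transcription by E. coli RNA polymerase produced barcoded ribozyme variants on sequenced MiSeq chips, and a hybridised Cy3 probe tracked them at 37 °C. Glucosamine-6-phosphate was flowed in at 40 μM to 10 mM in HEPES/KCl/Mg(OAc)2 buffer. kcat and KM were taken from weighted Michaelis–Menten fits of kobs values from exponential decay fits.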

Series [2] covers variants of B1. As to the kind of experiment: KM; higher = weaker cofactor use; RNA array. The procedure, abridged: as §1
In series [3] the parent is B1. Nature of the series: self-cleavage kobs at 40 uM GlcN6P; higher = faster cleavage; RNA array. In outline:
as §1

The variants in series [4] derive from B1. As to the kind of experiment: self-cleavage kobs at 160 uM GlcN6P; higher = faster cleavage; RNA array. In outline:
as §1

Variants of B1 are the subject of series [5]. Nature of the series: self-cleavage kobs at 640 uM GlcN6P; higher = faster cleavage; RNA array. The procedure, abridged: as §1
In series [6] the parent is B1. Nature of the series: self-cleavage kobs at 2500 uM GlcN6P; higher = faster cleavage; RNA array. The procedure, abridged:
as §1

Variants of B1 are the subject of series [7]. Nature of the series: self-cleavage kobs at 10000 uM GlcN6P; higher = faster cleavage; RNA array. The procedure, abridged:
as §1

For orientation: kcat means the number of substrate molecules converted per active site and unit of time at saturation. Broadly, the KM is the concentration of substrate that gives half-maximal velocity. As to A14U U30G, the kcat with glucosamine-6-phosphate [1] is 0.00494 ± 0.00089 s⁻¹. In the series with glucosamine-6-phosphate [2], the Michaelis constant (KM) turned out to be 2220 ± 540 µM. For the same variant, the “self-cleavage kobs at 40 uM GlcN6P” value with glucosamine-6-phosphate [3] is 0.000104 ± 8.8e-06 s⁻¹. The “self-cleavage kobs at 160 uM GlcN6P” value with glucosamine-6-phosphate [4] turned out to be 0.000282 ± 3.6e-05 s⁻¹. Also, the “self-cleavage kobs at 640 uM GlcN6P” value in the series with glucosamine-6-phosphate [5] stood at 0.000998 ± 0.0001 s⁻¹. Moreover, in the series with glucosamine-6-phosphate [6], the “self-cleavage kobs at 2500 uM GlcN6P” value was 0.0033 ± 0.00052 s⁻¹. Moreover, the “self-cleavage kobs at 10000 uM GlcN6P” value in the series with glucosamine-6-phosphate [7] stood at 0.00404 ± 0.00036 s⁻¹.
For the variant U30G U31G, in the series with glucosamine-6-phosphate [1], the kcat was determined as 0.0304 ± 0.012 s⁻¹. Moreover, the “self-cleavage kobs at 40 uM GlcN6P” value with glucosamine-6-phosphate [3] stood at 0.00149 ± 0.00022 s⁻¹. Also, in the series with glucosamine-6-phosphate [5], the “self-cleavage kobs at 640 uM GlcN6P” value is 0.0102 ± 0.0017 s⁻¹. For the same variant, the “self-cleavage kobs at 10000 uM GlcN6P” value with glucosamine-6-phosphate [7] turned out to be 0.036 ± 0.0081 s⁻¹.
With U55A U69G, in the series with glucosamine-6-phosphate [1], the kcat was determined as 6.88e-05 ± 8.3e-06 s⁻¹. In addition, in the series with glucosamine-6-phosphate [4], the “self-cleavage kobs at 160 uM GlcN6P” value came out at 8.26e-05 ± 1.6e-05 s⁻¹. Further, in the series with glucosamine-6-phosphate [5], the “self-cleavage kobs at 640 uM GlcN6P” value was 6.99e-05 ± 1.2e-05 s⁻¹. Moreover, in the series with glucosamine-6-phosphate [6], the “self-cleavage kobs at 2500 uM GlcN6P” value worked out at 7.05e-05 ± 8.6e-06 s⁻¹. Further, the “self-cleavage kobs at 10000 uM GlcN6P” value with glucosamine-6-phosphate [7] stood at 5.04e-05 ± 1.3e-05 s⁻¹.
Regarding A14G G40A G41U G66A, the kcat with glucosamine-6-phosphate [1] stood at 0.000815 ± 0.00014 s⁻¹. Moreover, the KM with glucosamine-6-phosphate [2] was determined as 2850 ± 980 µM. Besides, in the series with glucosamine-6-phosphate [5], the “self-cleavage kobs at 640 uM GlcN6P” value worked out at 0.000149 ± 3.6e-05 s⁻¹. Further, the “self-cleavage kobs at 2500 uM GlcN6P” value with glucosamine-6-phosphate [6] is 0.000356 ± 9.3e-05 s⁻¹. Moreover, in the series with glucosamine-6-phosphate [7], the “self-cleavage kobs at 10000 uM GlcN6P” value was 0.000645 ± 0.0001 s⁻¹.
In the case of A14U C50G, in the series with glucosamine-6-phosphate [1], the kcat is 0.000106 ± 3e-05 s⁻¹. For the same variant, the “self-cleavage kobs at 40 uM GlcN6P” value with glucosamine-6-phosphate [3] was found to be 4.12e-05 ± 1.3e-05 s⁻¹. Further, the “self-cleavage kobs at 160 uM GlcN6P” value in the series with glucosamine-6-phosphate [4] came to 0.000164 ± 3e-05 s⁻¹. Also, the “self-cleavage kobs at 2500 uM GlcN6P” value with glucosamine-6-phosphate [6] was determined as 9.1e-05 ± 1.6e-05 s⁻¹. Moreover, in the series with glucosamine-6-phosphate [7], the “self-cleavage kobs at 10000 uM GlcN6P” value was found to be 0.000112 ± 5e-05 s⁻¹.
Take A12C A39U: the turnover number (kcat) with glucosamine-6-phosphate [1] was 0.0119 ± 0.0024 s⁻¹. Moreover, the KM with glucosamine-6-phosphate [2] turned out to be 2230 ± 600 µM. Moreover, the “self-cleavage kobs at 40 uM GlcN6P” value with glucosamine-6-phosphate [3] stood at 0.000239 ± 1.9e-05 s⁻¹. For the same variant, in the series with glucosamine-6-phosphate [4], the “self-cleavage kobs at 160 uM GlcN6P” value amounted to 0.000824 ± 9.8e-05 s⁻¹. For the same variant, the “self-cleavage kobs at 640 uM GlcN6P” value with glucosamine-6-phosphate [5] came out at 0.00219 ± 0.00025 s⁻¹. The “self-cleavage kobs at 2500 uM GlcN6P” value with glucosamine-6-phosphate [6] turned out to be 0.00569 ± 0.00066 s⁻¹. Further, in the series with glucosamine-6-phosphate [7], the “self-cleavage kobs at 10000 uM GlcN6P” value turned out to be 0.0112 ± 0.0011 s⁻¹.
For A64U G66A, the catalytic constant (kcat) with glucosamine-6-phosphate [1] was 0.000113 ± 1.2e-05 s⁻¹. Besides, in the series with glucosamine-6-phosphate [2], the Michaelis constant (KM) is 3460 ± 930 µM. Besides, the “self-cleavage kobs at 40 uM GlcN6P” value with glucosamine-6-phosphate [3] was less than 1e-05 s⁻¹. Further, in the series with glucosamine-6-phosphate [6], the “self-cleavage kobs at 2500 uM GlcN6P” value worked out at 4.95e-05 ± 8.6e-06 s⁻¹. Further, in the series with glucosamine-6-phosphate [7], the “self-cleavage kobs at 10000 uM GlcN6P” value is 8.32e-05 ± 1e-05 s⁻¹.
As to A14G U55C, the kcat in the series with glucosamine-6-phosphate [1] was found to be 0.0632 ± 0.029 s⁻¹. In addition, the “self-cleavage kobs at 40 uM GlcN6P” value with glucosamine-6-phosphate [3] was found to be 0.00179 ± 0.00021 s⁻¹. In addition, the “self-cleavage kobs at 160 uM GlcN6P” value with glucosamine-6-phosphate [4] is 0.00449 ± 0.00098 s⁻¹. The “self-cleavage kobs at 640 uM GlcN6P” value with glucosamine-6-phosphate [5] is 0.0382 ± 0.012 s⁻¹. The “self-cleavage kobs at 10000 uM GlcN6P” value with glucosamine-6-phosphate [7] is 0.0522 ± 0.015 s⁻¹.
A12C U30C C71U: the kcat with glucosamine-6-phosphate [1] was determined as 0.00195 ± 0.00038 s⁻¹. In the series with glucosamine-6-phosphate [2], the KM was 3540 ± 1200 µM. Further, in the series with glucosamine-6-phosphate [3], the “self-cleavage kobs at 40 uM GlcN6P” value was 3.06e-05 ± 1.5e-05 s⁻¹. In the series with glucosamine-6-phosphate [5], the “self-cleavage kobs at 640 uM GlcN6P” value amounted to 0.000258 ± 8.1e-05 s⁻¹. In the series with glucosamine-6-phosphate [6], the “self-cleavage kobs at 2500 uM GlcN6P” value worked out at 0.000922 ± 0.00025 s⁻¹. For the same variant, in the series with glucosamine-6-phosphate [7], the “self-cleavage kobs at 10000 uM GlcN6P” value stood at 0.00141 ± 0.00029 s⁻¹.
Consider U54C C58U, for which, in the series with glucosamine-6-phosphate [1], the kcat came to 4.86e-05 ± 8.6e-06 s⁻¹. For the same variant, in the series with glucosamine-6-phosphate [6], the “self-cleavage kobs at 2500 uM GlcN6P” value is 4.48e-05 ± 1.5e-05 s⁻¹. In addition, the “self-cleavage kobs at 10000 uM GlcN6P” value with glucosamine-6-phosphate [7] was found to be 4.34e-05 ± 9.3e-06 s⁻¹.
Take U46C C70U: in the series with glucosamine-6-phosphate [1], the kcat was determined as 0.00656 ± 0.0027 s⁻¹. For the same variant, in the series with glucosamine-6-phosphate [3], the “self-cleavage kobs at 40 uM GlcN6P” value turned out to be 0.00017 ± 2.3e-05 s⁻¹. Also, the “self-cleavage kobs at 160 uM GlcN6P” value with glucosamine-6-phosphate [4] is 0.00026 ± 3.8e-05 s⁻¹. For the same variant, in the series with glucosamine-6-phosphate [5], the “self-cleavage kobs at 640 uM GlcN6P” value amounted to 0.00156 ± 0.00017 s⁻¹. In addition, in the series with glucosamine-6-phosphate [6], the “self-cleavage kobs at 2500 uM GlcN6P” value came out at 0.00301 ± 0.00041 s⁻¹. Moreover, in the series with glucosamine-6-phosphate [7], the “self-cleavage kobs at 10000 uM GlcN6P” value was 0.00508 ± 0.00066 s⁻¹.
With A12C C67G, in the series with glucosamine-6-phosphate [1], the catalytic constant (kcat) was 0.00173 ± 0.00067 s⁻¹. Besides, the “self-cleavage kobs at 40 uM GlcN6P” value with glucosamine-6-phosphate [3] was determined as 6.89e-05 ± 6e-06 s⁻¹. In the series with glucosamine-6-phosphate [4], the “self-cleavage kobs at 160 uM GlcN6P” value amounted to 0.000199 ± 2.4e-05 s⁻¹. The “self-cleavage kobs at 640 uM GlcN6P” value with glucosamine-6-phosphate [5] came to 0.000444 ± 5.8e-05 s⁻¹. In addition, the “self-cleavage kobs at 2500 uM GlcN6P” value in the series with glucosamine-6-phosphate [6] was determined as 0.00106 ± 0.00012 s⁻¹. Also, in the series with glucosamine-6-phosphate [7], the “self-cleavage kobs at 10000 uM GlcN6P” value came out at 0.00265 ± 0.00032 s⁻¹.
For G51U U69A, the turnover number (kcat) with glucosamine-6-phosphate [1] came out at 5.12e-05 ± 2.4e-05 s⁻¹. For the same variant, in the series with glucosamine-6-phosphate [5], the “self-cleavage kobs at 640 uM GlcN6P” value amounted to 7.72e-05 ± 1.7e-05 s⁻¹.
As to C10A G38A, in the series with glucosamine-6-phosphate [1], the kcat was less than 1e-05 s⁻¹. For the same variant, the “self-cleavage kobs at 40 uM GlcN6P” value with glucosamine-6-phosphate [3] is less than 1e-05 s⁻¹.
With A39G U47A, in the series with glucosamine-6-phosphate [1], the catalytic constant (kcat) is 0.0304 ± 0.014 s⁻¹. The “self-cleavage kobs at 40 uM GlcN6P” value with glucosamine-6-phosphate [3] was 0.00119 ± 0.00019 s⁻¹. Also, the “self-cleavage kobs at 160 uM GlcN6P” value with glucosamine-6-phosphate [4] was 0.00231 ± 0.00088 s⁻¹. Besides, the “self-cleavage kobs at 640 uM GlcN6P” value in the series with glucosamine-6-phosphate [5] turned out to be 0.00788 ± 0.0025 s⁻¹. In the series with glucosamine-6-phosphate [6], the “self-cleavage kobs at 2500 uM GlcN6P” value was 0.0164 ± 0.005 s⁻¹. For the same variant, the “self-cleavage kobs at 10000 uM GlcN6P” value in the series with glucosamine-6-phosphate [7] stood at 0.0441 ± 0.011 s⁻¹.

The values above are taken from the supplement of paper PMC7125110.
